Results published in the DeepSol protein solubility set.

Experiment: soluble on expression in E. coli; label from the status in PepcDB or PDB records

Question: Which “soluble on expression in E. coli” value does the source give for “MSLSQKNNNELPKQAAENTLNLNPVIGIRGKDLLTSARMVLLQAVRQPLHSARHVAHFSLELKNVLLGQSELRPGDDDRRFSDPAWSQNPLYKRYMQTYLAWRKELHSWISHSDLSPQDISRGQFVINLLTEAMSPTNSLSNPAAVKRFFETGGKSLLDGLGHLAKDLVNNGGMPSQVDMDAFEVGKNLATTEGAVVFRNDVLELIQYRPITESVHERPLLVVPPQINKFYVFDLSPDKSLARFCLRNGVQTFIVSWRNPTKSQREWGLTTYIEALKEAIEVVLSITGSKDLNLLGACSGGITTATLVGHYVASGEKKVNAFTQLVSVLDFELNTQVALFADEKTLEAAKRRSYQSGVLEGKDMAKVFAWMRPNDLIWNYWVNNYLLGNQPPAFDILYWNNDTTRLPAALHGEFVELFKSNPLNRPGALEVSGTPIDLKQVTCDFYCVAGLNDHITPWESCYKSARLLGGKCEFILSNSGHIQSILNPPGNPKARFMTNPELPAEPKAWLEQAGKHADSWWLHWQQWLAERSGKTRKAPASLGNKTYPAGEAAPGTYVHEREGHHHHHH” here?
Answer: soluble

Question: For “MSLSQPIKLGIITDRVGAAKPYAEPVLQGAQVAAKELNASGGVLGRPIELLVEDDQGRPDLSATAARKMVDSGVAFILSISWTSATQQAQSVTVETGTPHLAPSNSGDTLTTQIANPNFWQTGPLASSQVSTLLAYARSKSFKRVAIIGDNTGLGQLMTQSFKAGIEAAKIQVVSEEVVPRGANSADAQIQRVRASNPDAIFLTGILAPENTLILRAYRLLGLKAPLLGNFSFSNIQYASVAKGLLDGLVFIDAFDPTKPQVQRFIATYTKAAGTAPDNINAYGYDGVMLVADAIRRAGGTDKLKVRDAMQATKGFVGVLGAQGASYGFANGKRTGFDGDGLVVRIYEGDRQGKVQFTGTREGHHHHHH”, which “soluble on expression in E. coli” value is on record?
Answer: soluble

Question: For “MSLSQQVIIFDTTLRDGEQALQASLSVKEKLQIALALERMGVDVMEVGFPVSSPGDFESVQTIARQVKNSRVCALARCVEKDIDVAAESLKVAEAFRIHTFIATSPMHIATKLRSTLDEVIERAIYMVKRARNYTDDVEFSCEDAGRTPIADLARVVEAAINAGATTINIPDTVGYTMPFEFAGIISGLYERVPNIDKAIISVHTHDDLGLAVGNSLAAVHAGARQVEGAMNGIGERAGNCSLEEVIMAIKVRKDILNVHTAINHQEIWRTSQLVSQICNMPIPANKAIVGSGAFAHSSGIHQDGVLKNRENYEIMTPESIGLNQIQLNLTSRSGRAAVKHRMDEMGYKESEYNLDNLYDAFLKLADKKGQVFDYDLEALAFIGKQQEEPEHFRLDYFSVQSGSNDIATAAVKLACGEEVKAEAANGNGPVDAVYQAINRITEYNVELVKYSLTAKGHGKDALGQVDIVANYNGRRFHGVGLATDIVESSAKAMVHVLNNIWRAAEVEKELQRKAQHNENNKETVEGGSHHHHHH”, which “soluble on expression in E. coli” value is on record?
Answer: soluble

Question: For “MSLSRAAIVDQLKEIVGADRVITDETVLKKNSIDRFRKFPDIHGIYTLPIPAAVVKLGSTEQVSRVLNFMNAHKINGVPRTGASATEGGLETVVENSVVLDGSAMNQIINIDIENMQATAQCGVPLEVLENALREKGYTTGHSPQSKPLAQMGGLVATRSIGQFSTLYGAIEDMVVGLEAVLADGTVTRIKNVPRRAAGPDIRHIIIATKVHCAISLK”, which “soluble on expression in E. coli” value is on record?
Answer: soluble

Question: With “MSLSREPQTYLAQRFDPDALGQPALALQLEARHNDTEVPVHRHRKGQLVVACRGGITCTVPDGLWMVPAGFGVWIPGGIAHSNRVTANGKVCFLFVEPGAARLPSDCCTLALSPLVLELILHLSAQPQDYPHDGPLARLAGVLLELLEQAPTEQLYLPLPDNRGLRRIADELTRAPGDRASMAEWARRVAMSERSLARMVRRETGMTFGQWRQQLQIIIALQQLSAGVSVQRTAEILGYESVSSFIGMFRKALGSPPARYVRDSMEGGSHHHHHH” as the sequence, how does the “soluble on expression in E. coli” value read?
Answer: soluble

Question: Which “soluble on expression in E. coli” value does the source give for “MSLSRPRSVADHPMINPRLIALPDYPFQRLATLLAGVAPGADPLALSVGEPQHPTPALAGLELARHGDQWRRYPPAAGNERWKAAVTAWLTRRYGLPAAMIDPHAVIPASGTREALYMLGQVLTDGRGEAGERPLVVMPDPLYLPYLGAARMNGATILAVPGSEEGDFLPDIAGLPAATLERAAAVFVCSPANPQGSIVSLESWKTLVGLARRHGFVLVADECYSEIYDDQPPPGVLEACRDLGGSLKNVLVLNSLSKRSNGAGLRSGLIAGDRALIDAFLRLRAYASAGMPLPIMEASAALWDDETHVEANRALYREKIDLAAARLKGMLGFRRPPGGFFLWLDTTPWGETGEQATLRLWRDHGLKVLPGAYMTANPDAGDNPARNRLRLALVHDGPVVARALDRLVAASPHEGHHHHHH” here?
Answer: soluble

Question: With “MSLSRRIGIIDTTLRDAQQCLWATRMTAGMMDPIAQALDEAGFDMIDFMAPVQFDVCVRYLREDPFEKARHFRKRFRNTPMRSYCRSKSLVGFSMVPDDMVELWIDCLAANGFSAVGTLDSLLDVDNMKVSVGRAKKIGIKSIGALVFCESPLHTDALYAGTAAELVRCGVDGIMLKDSGALLTIERIRTLIPALRAAVGDIPIEVHSHSNTGLVQRVYLDAADLGIDQLHTSIAPLAGGVAQPSIQNMTRNLAQRGYRTDVDMARVEEISAYLHRLAARYDFPLGKEGHHHHHH” as the sequence, how does the “soluble on expression in E. coli” value read?
Answer: not soluble

Question: Which “soluble on expression in E. coli” value does the source give for “MSLSRVRLVIAQCTVDYIGRLTAHLPSARRLLLFKADGSVSVHADDRAYKPLNWMSPPCWLTEESGGQAPVWVVENKAGEQLRITIEGIEHDSSHELGVDPGLVKDGVEAHLQALLAEHIQLLGEGYTLVRREYMTAIGPVDLLCSDERGGSVAVEIKRRGEIDGVEQLTRYLELLNRDSVLAPVKGVFAAQQIKPQARILATDRGIRCLTLDYDTMRGMDSGEYRLFEGHHHHHH” here?
Answer: soluble

Question: Which “soluble on expression in E. coli” value does the source give for “MSLSSARADRLRSHQTRVIGLILTDIANPFYTEIAAGTIDAARARGYEVFLAHTQEDPQTLRSIVDTMIARQVDGVVITVLHPDDGEVIRSLRSARIPLVQLSRRIQRVDADFVGIDDRAAASEMMEHVVTHGYQDIVTVVGPRTSSASAAREEGFIRTAEAHGIRTVSSQRISTYLSERGGYEAVEQVLARKSLPRVIVCGSDVIALGAISALRERSLNVPDDVAVTGFDGLYPGPLVELTTINQPRREMAEQSIELLTRRIEGAGGSYQSVLRAHQLRIGTTCGCPRMRPHLAAEGHHHHHH” here?
Answer: not soluble

Question: With “MSLSSEPVVVAILPHAAELAEKIAAKIGGRVDLRGSDFTDTGAHLRSLFLAGHPIVGIGAAGIYIRSLASVLGDKNSEPPVLAVSEDARNIVPLLGGHHGANGLAKEIADYLETAAAVTTSGDVAMGVALDEPPQGWKLENPEDAKGAMAALLGGAKAQQSGNGDWLTPLSSRVEFSETDADAPVVLSVEGAAPLIYRRQSFALGLGCARGCDPDELIALVAKTLADNGRSIHEVAMVGSIDIKSDEAAIHAVARHLGVPARFFDADELNSVTPRLANPSEVVRAEVGVAGVSEGAALVMAGVSGALVIEKTKTANATCALARISQDGSEGHHHHHH” as the sequence, how does the “soluble on expression in E. coli” value read?
Answer: soluble

Question: For “MSLSSLLIDLKGKELEQEEVELLSHPLVAGLILFTRNFENREQIQELIRSVRQRVKKPLLITVDQEGGRVQRFRDGFTMLPSMQAFQETLSATEQVSFAKEAGWQMAAEMIALDIDLSFAPVLDLGHECRAIGDRSFSSDVKSAVNLATAFIDGMHQAGMASTGKHFPGHGHVLADSHLETPYDDRTKEEIFSGDLQPFQQLISQNKLDAIMPAHVIYSQCDSQPASGSKYWLKEILRKKLNFQGTIFSDDLGMKGAGVMGNFVERSKKALNAGCDLLLLCNEREGVIQVLDNLKLTENQPHFMARQARLQSLFKRRVINWNDLISDQRWRLNYQKLADIQSRWLDIQAAKNDEGGSHHHHHH”, which “soluble on expression in E. coli” value is on record?
Answer: soluble

Question: Which “soluble on expression in E. coli” value does the source give for “MSLSSWVSESSTETDKYGKSSEGKLYGKSRLSAHPGGIFEPVPYMTSAISLFEYIRERFGYGIEILHDVHERISPIQGVWFAKQVEKYRLFFLEDLFSPEDQHYFEMVRQQCATPIAMGELYVSPNDVIPMMKNKLIDFIRIHISDIGGITPARKIATFGELMGIKTAWHGPGDTSPVGHAANLALNLNSQNFGIQEAAIFGENSKEVFPGCPELRDGMMWSNGKPGLGIDINEELAKKFPFKERVWGGAWEGHHHHHH” here?
Answer: not soluble

Question: Which “soluble on expression in E. coli” value does the source give for “MSLSTDTAPAQTMHAGRLIARRLKASGIDTVFTLSGGHLFSIYDGCREEGIRLIDTRHEQTAAFAAEGWSKVTRVPGVAALTAGPGITNGMSAMAAAQQNQSPLVVLGGRAPALRWGMGSLQEIDHVPFVAPVARFAATAQSAENAGLLVDQALQAAVSAPSGVAFVDFPMDHAFSMSSDNGRPGALTELPAGPTPAGDALDRAAGLLSTAQRPVIMAGTNVWWGHAEAALLRLVEERHIPVLMNGMARGVVPADHRLAFSRARSKALGEADVALIVGVPMDFRLGFGGVFGSTTQLIVADRVEPAREHPRPVAAGLYGDLTATLSALAGSGGTDHQGWIEELATAETMARDLEKAELVDDRIPLHPMRVYAELAALLERDALVVIDAGDFGSYAGRMIDSYLPGCWLDSGPFGCLGSGPGYALAAKLARPQRQVVLLQGDGAFGFSGMEWDTLVRHNVAVVSVIGNNGIWGLEKHPMEALYGYSVVAELRPGTRYDEVVRALGGHGELVSVPAELRPALERAFASGLPAVVNVLTDPSVAYPRRSNEGHHHHHH” here?
Answer: not soluble

Question: With “MSLSTPSKAMAAMEFNTTSVNKSSAIDSNNTKKEQLSDVNDISFTDHGYYIIPSLDTLNGMPLVELRSVNGLVVGHKDYGKVEFLEPVDLVNVPLNSICDKLIHFEPKTCILYPNSPIKPKKGEGMNVPAKITCFDCFPINKSTREPILDANSTLLKKHIDKLKKVPGTKFVSYEEKTGKYVFTVDEPILEGHHHHHH” as the sequence, how does the “soluble on expression in E. coli” value read?
Answer: soluble

Question: For “MSLSVADIAYVVFNHVDLLEAERFYTDFGLTVAYRNEFEVAFRPAMERSYCYVARKADKPGLVSIGLSAASQEDLVVAAQFPEASPIQAIERPGGGQVVRLTSPDGVNFELVHGIDVYPARPVRDALSINTGIVKTRHGQWQRPELEPASILRLGHVALLTGDFKTNAQWLRSRFGFMPSDVLFADAPENQVGAFFHCTGGNPWTDHHTLALFPSDGSRMHHCSFEIQDLDAQFLGNKWLASRGWKPGWGVGRHILGSQIFDYWFDPAGNLVEHFTDGDLIQAGAAPGMHPLDDDALAMWGPPLTASKFVAMAAREGHHHHHH”, which “soluble on expression in E. coli” value is on record?
Answer: soluble

Question: With “MSLSVKRVLRNTIRKEKEENRVTEPLTETPELSAKYAWFFDLDGTLAEIKPHPDQVVVPDTILQGLQLLATASDGALALISGRSMVELDALAKPYRFPLAGVHGAERRDINGKTHIVHLPDAIARDISVQLHTVIAQYPGAELEAKGMAFALHYRQAPQHEDALMTLAQRITQIWPQMALQQGKCVVEIKPKGTSKGEAIAAFMQEAPFIGRTPVFLGDDLTDESGFAVVNRLGGMSVKIGTGATQASWRLAGVPDVWSWLEMITTALQQKRENNRSDDYESFSRSIEGHHHHHH” as the sequence, how does the “soluble on expression in E. coli” value read?
Answer: soluble

Question: For “MSLSVLNAKECVSPITRSVKYHQQSAEIRALQLQSYKMAKMALDNNLKLVKDKKPAVILDLDETVLNTFDYAGYLIKNCIKYTPETWDKFEKEGSLTLIPGALDFLEYANSKGVKIFYISNRTQKNKAFTLKTLKSFKLPQVSEESVLLKEKGKPKAVRRELVAKDYAIVLQVGDTLHDFDAIFAKDAKNSQEQRAKVLQNAQKFGTEWIILPNSLYGTWEDEPIKAWQNKKEGHHHHHH”, which “soluble on expression in E. coli” value is on record?
Answer: soluble

Question: For “MSLSVPAAAPEDSVISAEETTTGSAVTNVQFSNEQVITENGKYKVSKLAPSLSFLPSNVELCCSVDAKSGYALCCDTDNVYVWPFLSSETHPSFVRIPLHDEEYESWSRPPLCCFTWPSVLERDLKSSPGLFLVNSRSGDIQFYEDVDTVSQVASFLTQTKRHKSVLKLRDGEYVENLINAEPAGILLSTNYGRVEFCTIRDANGKPFVSLKQTIIKCQVGIFSSMSKSKRVVSLKLGEISGKGERIVSILTQGGRYQVWNLSSVGNCYKKIDLNVQSEISQAVLEHFPLATSTLKLLDCHPLSGDSDAYLFLSFLAESNETHYLLSTIIVDEDTNSFAIFSTYRLNTYTRPLSDEFAPRLIVPTAYTKEHLPITSVYTLFSDAAVLTQTSSKLDSNYPFKRKWEDIIRFNKDMKVLGYDCNSSSLYITDGRTCALKLETFEKYENSDFQEIRFIKSHVDQYVYFGGQSTDEGHHHHHH”, which “soluble on expression in E. coli” value is on record?
Answer: soluble
